Data from patent publication US20260266848A1, “COMPOSITIONS AND METHODS FOR DIAGNOSING AND TREATING DYSTONIA” (Duke University, priority 2023, published 2026).

Key:
DYT-TOR1A MEF EVs = assay: Quantitative LC-MS/MS proteomics of EVs from drug-treated DYT-TOR1A MEF cultures (ritonavir, salubrinal); type: cell-based, mouse; design: key to RTV Corrective Direction / RTV Corrective Direction, Grwd1 / RTV Corrective Direction, Srrm2 / RTV Corrective Direction, Rbm17 / RTV Corrective Direction, Dcaf8 / RTV Corrective Direction, Edil3 / RTV Corrective Direction, Timp3 / RTV Corrective Direction, Heatr3 / RTV Corrective Direction, Brd4 / RTV Corrective Direction, P3h4 / RTV Corrective Direction, Pacsin3 / RTV Corrective Direction, Naa50 / RTV Corrective Direction, Lpar6 / RTV Corrective Direction, Ndrg1 / RTV Corrective Direction, Kntc1 / RTV Corrective Direction, Cdk11b / RTV Corrective Direction, Sumo1 / RTV Corrective Direction, Lsm4 / RTV Corrective Direction, Hmga2 / RTV Corrective Direction, Cstf1 / RTV Corrective Direction, Tes / RTV Corrective Direction, Sbno1 / RTV Corrective Direction, Unc119b / RTV Corrective Direction, Cfdp1 / RTV Corrective Direction, Sec61b: YES = protein abundance effect opposite to DYT/WT; conditions: EV protein abundance; for RTV Corrective Direction: DYT + RTV (ritonavir) vs DYT, direction compared with DYT/WT; for DYT + RTV/DYT Cohen's d: ritonavir (RTV)-treated DYT vs DYT
WT MEF EVs = assay: Quantitative LC-MS/MS proteomics of EVs from ISRIB-treated WT MEF cultures; type: cell-based, mouse; design: key to ISRIB and DYT Parallel Direction / ISRIB and DYT Parallel Direction, Ctdsp1 / ISRIB and DYT Parallel Direction, Pcdh19 / ISRIB and DYT Parallel Direction, Tspan7 / ISRIB and DYT Parallel Direction, Myo1e / ISRIB and DYT Parallel Direction, Plpp3 / ISRIB and DYT Parallel Direction, Sh3bp4 / ISRIB and DYT Parallel Direction, Dnajc7 / ISRIB and DYT Parallel Direction, Drg1 / ISRIB and DYT Parallel Direction, Maea: YES = protein abundance effect similar to DYT/WT; conditions: EV protein abundance; for WT + ISRIB/WT Cohen's d: ISRIB-treated WT vs WT; for ISRIB and DYT Parallel Direction: WT + ISRIB vs WT, direction compared with DYT/WT
[1] = tested on: DYT1 patient plasma derived EVs; assay: Plasma-derived EV proteomics (ExoQuick ULTRA, DIA LC/MS/MS), DYT1 vs Healthy Controls; design: species or system human; conditions: Hs. Plasma EVs (DYT1/WT); significance of genotype difference
Experimental: Data was obtained for extracellular vesicles using previously acquired samples. The ExoQuick® ULTRA EV Isolation System was used to fractionate and enrich EVs from plasma. Isolated plasma EV samples were then submitted to proteomic analysis by the Duke Proteomics and Metabolomics Core Facility (DPMCF). At the DPMCF, quantitative (LC/MS/MS) was performed on 500 ng of each sample, using an EvoSep One UPLC system coupled to a Thermo Orbitrap Astral high-resolution accurate mass tandem mass spectrometer (Thermo). Briefly, the sample was eluted directly from an Evotip which was subjected to a low organic wash and then subjected to an analytical separation using a 1.7 μm EvoSep 150 um ID×15 cm endurance (EveoSep) column running an SPD30 gradient from approximately 5 to 30% acetonitrile with 0.1% formic acid with a column temperature of 50 C. Data collection on the Orbitrap Astral mass spectrometer was performed in a data-independent acquisition (DIA) mode of acquisition with a r=240,000 (@m/z 200) full MS scan from m/z 380-980 with a target AGC value of 4e5 ions. Fixed DIA, windows of 4 m/z from m/z 380 to 980 DIA MS/MS scans were acquired in the Astral with a target AGC value of 5e4 and a max fill time of 6 ms. HCD collision energy setting of 27% was used for all MS2 scans.

Molecule | RTV Corrective Direction (DYT-TOR1A MEF EVs) | DYT + RTV/DYT Cohen's d (DYT-TOR1A MEF EVs) | WT + ISRIB/WT Cohen's d (WT MEF EVs) | ISRIB and DYT Parallel Direction (WT MEF EVs) | -LogP [1]
Cd276 (protein, UniProt Q8VE98 29-316, looked up) CD276 antigen: VEVQVSEDPVVALVDTDATLRCSFSPEPGFSLAQLNLIWQLTDTKQLVHSFTEGRDQGSAYSNRTALFPDLLVQGNASLRLQRVRVTDEGSYTCFVSIQDFDSAAVSLQVAAPYSKPSMTLEPNKDLRPGNMVTITCSSYQGYPEAEVFWKDGQGVPLTGNVTTSQMANERGLFDVHSVLRVVLGANGTYSCLVRNPVLQQDAHGSVTITGQPLTFPPEALWVTVGLSVCLVVLLVALAFVCWRKIKQSCEEENAGAEDQDGDGEGSKTALRPLKPSENKEDDGQEIA | YES | 1.75 | −2.07 | YES | –
Mvd (protein, UniProt P53602 2-400, looked up) Diphosphomevalonate …: ASEKPLAAVTCTAPVNIAVIKYWGKRDEELVLPINSSLSVTLHQDQLKTTTTAVISKDFTEDRIWLNGREEDVGQPRLQACLREIRCLARKRRNSRDGDPLPSSLSCKVHVASVNNFPTAAGLASSAAGYACLAYTLARVYGVESDLSEVARRGSGSACRSLYGGFVEWQMGEQADGKDSIARQVAPESHWPELRVLILVVSAEKKLTGSTVGMRASVETSPLLRFRAESVVPARMAEMARCIRERDFPSFAQLTMKDSNQFHATCLDTFPPISYLNAISWRIIHLVHRFNAHHGDTKVAYTFDAGPNAVIFTLDDTVAEFVAAVWHGFPPGSNGDTFLKGLQVRPAPLSAELQAALAMEPTPGGVKYIIVTQVGPGPQILDDPCAHLLGPDGLPKPAA | YES | 4.38 | −0.34 | YES | –
Dhx15 (protein, UniProt O35286 1-795, looked up) ATP-dependent RNA helicase …: MSKRHRLDLGEDYPSGKKRAGTDGKDRERDRDREDRSKDRDRERDRGDREREREKEKEKELRASTNAMLISAGLPPLKASHSAHSTHSAHSTHSTHSAHSTHTGHTGHTSLPQCINPFTNLPHTPRYYDILKKRLQLPVWEYKDRFTDILVRHQSFVLVGETGSGKTTQIPQWCVEYMRSLPGPKRGVACTQPRRVAAMSVAQRVADEMDVMLGQEVGYSIRFEDCSSAKTILKYMTDGMLLREAMNDPLLERYGVIILDEAHERTLATDILMGVLKEVVRQRSDLKVIVMSATLDAGKFQIYFDNCPLLTIPGRTHPVEIFYTPEPERDYLEAAIRTVIQIHMCEEEEGDLLLFLTGQEEIDEACKRIKREVDDLGPEVGDIKIIPLYSTLPPQQQQRIFEPPPPKKQNGAIGRKVVVSTNIAETSLTIDGVVFVIDPGFAKQKVYNPRIRVESLLVTAISKASAQQRAGRAGRTRPGKCFRLYTEKAYKTEMQDNTYPEILRSNLGSVVLQLKKLGIDDLVHFDFMDPPAPETLMRALELLNYLAALNDDGDLTELGSMMAEFPLDPQLAKMVIASCDYNCSNEVLSITAMLSVPQCFVRPTEAKKAADEAKMRFAHIDGDHLTLLNVYHAFKQNHESVQWCYDNFINYRSLMSADNVRQQLSRIMDRFNLPRRSTDFTSRDYYINIRKALVTGYFMQVAHLERTGHYLTVKDNQVVQLHPSTVLDHKPEWVLYNEFVLTTKNYIRTCTDIKPEWLVKIAPQYYDMSNFPQCEAKRQLDRIIAKLQSKEYSQY | YES | 4.59 | −1.19 | YES | –
Lmna (protein, UniProt P48678 1-662, looked up) Prelamin-A/C: METPSQRRATRSGAQASSTPLSPTRITRLQEKEDLQELNDRLAVYIDRVRSLETENAGLRLRITESEEVVSREVSGIKAAYEAELGDARKTLDSVAKERARLQLELSKVREEFKELKARNTKKEGDLLAAQARLKDLEALLNSKEAALSTALSEKRTLEGELHDLRGQVAKLEAALGEAKKQLQDEMLRRVDAENRLQTLKEELDFQKNIYSEELRETKRRHETRLVEIDNGKQREFESRLADALQELRAQHEDQVEQYKKELEKTYSAKLDNARQSAERNSNLVGAAHEELQQSRIRIDSLSAQLSQLQKQLAAKEAKLRDLEDSLARERDTSRRLLAEKEREMAEMRARMQQQLDEYQELLDIKLALDMEIHAYRKLLEGEEERLRLSPSPTSQRSRGRASSHSSQSQGGGSVTKKRKLESSESRSSFSQHARTSGRVAVEEVDEEGKFVRLRNKSNEDQSMGNWQIRRQNGDDPLMTYRFPPKFTLKAGQVVTIWASGAGATHSPPTDLVWKAQNTWGCGSSLRTALINSTGEEVAMRKLVRSLTMVEDNEDDDEDGEELLHHHRGSHCSGSGDPAEYNLRSRTVLCGTCGQPADKAAGGAGAQVGGSISSGSSASSVTVTRSFRSVGGSGGGSFGDNLVTRSYLLGNSSPRSQSSQNC | YES | 3.97 | −0.19 | YES | –
AP1B1 (protein, UniProt Q10567 1-949, looked up) AP-1 complex subunit beta-1: MTDSKYFTTTKKGEIFELKAELNSDKKEKKKEAVKKVIASMTVGKDVSALFPDVVNCMQTDNLELKKLVYLYLMNYAKSQPDMAIMAVNTFVKDCEDPNPLIRALAVRTMGCIRVDKITEYLCEPLRKCLKDEDPYVRKTAAVCVAKLHDINAQLVEDQGFLDTLKDLISDSNPMVVANAVAALSEIAESHPSSNLLDLNPQSINKLLTALNECTEWGQIFILDCLANYMPKDDREAQSICERVTPRLSHANSAVVLSAVKVLMKFMEMLSKDLDYYGTLLKKLAPPLVTLLSAEPELQYVALRNINLIVQKRPEILKHEMKVFFVKYNDPIYVKLEKLDIMIRLASQANIAQVLAELKEYATEVDVDFVRKAVRAIGRCAIKVEQSAERCVSTLLDLIQTKVNYVVQEAIVVIKDIFRKYPNKYESVIATLCENLDSLDEPEARAAMIWIVGEYAERIDNADELLESFLEGFHDESTQVQLQLLTAIVKLFLKKPTETQELVQQVLSLATQDSDNPDLRDRGYIYWRLLSTDPVAAKEVVLAEKPLISEETDLIEPTLLDELICYIGTLASVYHKPPSAFVEGGRGVVHKSLPPRTASSESAESPETAPTGAPPGEQPDVIPAQGDLLGDLLNLDLGPPVSGPPLATSSVQMGAVDLLGGGLDSLMGDEPEGIGGTNFVAPPTAAVPANLGAPIGSGLSDLFDLTSGVGTLSGSYVAPKAVWLPAMKAKGLEISGTFTRQVGSISMDLQLTNKALQVMTDFAIQFNRNSFGLAPAAPLQVHAPLSPNQTVEISLPLSTVGSVMKMEPLNNLQVAVKNNIDVFYFSTLYPLHILFVEDGKMDRQMFLATWKDIPNENEAQFQIRDCPLNAEAASSKLQSSNIFTVAKRNVEGQDMLYQSLKLTNGIWVLAELRIQPGNPSCTDLELSLKCRAPEVSQHVYQAYETILKN | – | – | – | – | 2.413
Ap3d1 (protein, UniProt O54774 2-1199, looked up) AP-3 complex subunit delta-1: ALKMVKGSIDRMFDKNLQDLVRGIRNHKEDEAKYISQCIDEIKQELKQDNIAVKANAVCKLTYLQMLGYDISWAAFNIIEVMSASKFTFKRVGYLAASQCFHEGTDVIMLTTNQIRKDLSSPSQYDTGVALTGLSCFVTPDLARDLANDIMTLMSHTKPYIRKKAVLIMYKVFLKYPESLRPAFPRLKEKLEDPDPGVQSAAVNVICELARRNPKNYLSLAPLFFKLMTSSTNNWVLIKIIKLFGALTPLEPRLGKKLIEPLTNLIHSTSAMSLLYECVNTVIAVLISLSSGMPNHSASIQLCVQKLRILIEDSDQNLKYLGLLAMSKILKTHPKSVQSHKDLILQCLDDKDESIRLRALDLLYGMVSKKNLMEIVKKLMTHVDKAEGTTYRDELLTKIIDICSQSNYQHITNFEWYISILVELTRLEGTRHGHLIAAQMLDVAIRVKAIRKFAVSQMSSLLDSAHLVASSTQRNGICEVLYAAAWICGEFSEHLQGPQQTLEAMLRPKVTTLPGHIQAVYVQNVVKLYASILQQKEQAADTEAAQEVTQLLVERLPQFVQSADLEVQERASCILQLVKHVQKLQAKGVPVAEEVSALFAGELNPVAPKAQKKVPVPEGLDLDAWINEPPSDSESEDEKPKAIFHEEEPRHTRRRQPEEDEEELARRREARKQEQANNPFYIKSSPSPQKRYQDAPGVEHIPVVQIDLSVPLKVPGMPMSDQYVKLEEQRRHRQRLEKDKKRKKKEKGKRRHSSLPTESDEDIAPAQRVDIITEEMPENALPSDEDDKDPNDPYRALDIDLDKPLADSEKLPVQKHRNAEAVKSPEKEGVLGVEKKSKKPKKKEKKTKEREREKKDKKGEDLDFWLSTTPPPAAAPIPAPSTEELAASTITSPKDECEVLKGEEEDHVDHDQERKSSRHKKKKHRKEKEKEERPRDKKKAKKKQVAPLENGAAAEEEEEPIPPMSSYCLLAESPYIKVTYDIQASLQKDSQVTVSIILENQSSSFLKNMELNVLDSLNTKMTRPEGSSVHDGVPVPFQLPPGVSNEAQFVFTIQSIVMAQKLKGTLSFIAKDDEGATHEKLDFRLHFSCSSYLITTPCYSDAFAKLLESGDLSMNSIKVDGISMSFQNLLAKICFYHHFSVVERVDSCASMYSRSIQGHHVCLLVKKGESSVSVDGKCSDATLLSSLLEEMKTTLAQC | YES | 3.27 | −0.19 | YES | –
